# Non-standard residues stand in square brackets, D forms with d. No end group written: not given here. pS = N[C@@H](COP(=O)(O)O)C(=O)O
# Tests used:
# [1] = target: T1, LC3B protein (recombinant) (UniProt Q9GZQ8 1-120); experiment: NMR
# [2] = target: -L1 protein (recombinant) (UniProt Q9H0R8 1-117); experiment: ITC
# [3] = target: LC3A protein (recombinant) (UniProt Q9H492 1-121); experiment: ITC
# [4] = target: T2, GABARAP protein (recombinant) (UniProt O95166 1-117); experiment: NMR; GABARAP residue I32
# T2 sequence (O95166 whole entry): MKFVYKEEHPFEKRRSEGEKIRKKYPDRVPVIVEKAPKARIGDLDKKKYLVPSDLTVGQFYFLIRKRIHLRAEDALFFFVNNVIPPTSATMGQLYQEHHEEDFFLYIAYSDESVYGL
# [5] = target: T1, LC3B protein (recombinant); experiment: ITC
# [6] = target: T2, GABARAP protein (recombinant); experiment: ITC
# Chain of -L1 protein (recombinant) (Q9H0R8 whole entry): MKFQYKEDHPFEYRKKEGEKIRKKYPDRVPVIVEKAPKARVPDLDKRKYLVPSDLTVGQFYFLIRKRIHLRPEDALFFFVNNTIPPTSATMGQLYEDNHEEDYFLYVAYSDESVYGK
binder,measurement,setting,value
"EALN[pS]GVEYYWDQLNET [AMBRA1-LIR peptide, S1014 phosphorylated (P1)]",Kd,[1],46 µM
same,Kd,[2],25 µM
same,Kd,[3],~50 µM
same,Kd,[4],7 µM
"EALNSGVEYYWDQLNET [AMBRA1-LIR peptide, unphosphorylated (P0)]",Kd,[1],193 µM
same,Kd,[2],> 50 µM
same,Kd,[4],61 µM
"EALNDGVEYYWDQLNET [AMBRA1-LIR peptide, D-phosphomimicked (PM)]",Kd,[5],~50 µM
same,Kd,[6],31 µM

# From paper PMC6138665 (2018)
